# Assay results published in article doi:10.1101/2022.03.30.486221 (bioRxiv, 2022).
# B1: recombinant His6-tagged StTGA2.1 (natural protein, UniProt A0A9F1U434 1-270, looked up)
# chain: MDAMGDREGPRLVSSTALWRGDRRPAQVVQVSQLEQDFQRAPQQRESGSLPFDTEYSRWLEEHTKHINELRTAVNSHASDPELRSMVDSVIAHYDEVYRMKANAAKGNVEHLLSGMWKTPAERCSMWIGDFRPSLLLKLLVNQVEPLTEQQLIGIVNLQQSSQQAEDALSQDMEAWQQSLEVTLAYGSLATEGSSGDAAYNISQMAMAMGILGTLEGFLRQADNLRQQTLQQMHRMLTTRQSARALLAISEYFSRLRALSSLWLARPREQ
# Target: the molecule itself
# Test: SEC
protein,measurement,value
B1,stoichiometry N,2
